The source of these data is article PMC3031242, “A novel neuron-enriched protein SDIM1 is down regulated in Alzheimer's brains and attenuates cell death induced by DNAJB4 over-expression in neuro-progenitor cells” (Molecular Neurodegeneration, 2011).

The data set deals with the molecule itself. Nature of the data set: dimer-sized band on SDS-PAGE and Western blot; purified GST-SDIM1 (Coomassie and anti-SDIM1 blot, Figure 3A; anti-GST blot of the anti-GST immunoprecipitate, Figure 3D left panel lane 4). On the technique in general: A western blot detects proteins with antibodies after separation by electrophoresis.

B1: GST-SDIM1 fusion protein (domain or fragment, human, UniProt Q6ZPB5 27-146, looked up)
chain: AGPSPGARTTLGSPLSLWSIKTPSHIFCTRRAINLGFPSPPLVQLIFWSLNAGLDLYLCLISSCGFSQVFWPVEAFCSFSLSFFALALSHKFVICRLDQHIFSGFTKSLKNLPPCHRTDI
notes: first residue C27 mutated to A to increase solubility in E. coli; Cloned into pGEX-3X; GST itself is known to dimerise; also called recombinant GST-SDIM1; SDIM1-GST fusion protein; source: E. coli Rosetta cells, purified (glutathione column)
Consider B1, for which the binding result is on record as “binds”.
